Data published in US20050130175A1.

What was measured:
[1] = target: in vitro translated wild-type wee1 (UniProt P47817); experiment: glutathione precipitation from Xenopus interphase egg extract with nuclei and MG132, wee1 Western blot
[2] = target: in vitro translated S38A wee1 (UniProt P47817); experiment: as above

**Q.** What does the source list for “GST-Tome-1 (as used in the wee1 binding assay in Xenopus egg extracts) (from UniProt P08515 1-218)”?
**A.** % of input wee1 pulled down [1]: 25 % of input; % of input wee1 precipitated [2]: 2.5 % of input

**Q.** For “GST-VCA (GST fusion with the C terminus of the actin nucleating scaffolding protein N-WASP) (from UniProt P08515 1-218)”, which % of input wee1 precipitated [1] is on record?
**A.** 8 % of input

**Q.** And the % of input wee1 precipitated [2]?
**A.** 8 % of input
